Experimental findings from patent publication US20130101605A1 are described below.

In assay [1] the target is RGM of chick tectal membranes (chick) (UniProt Q8JG54). Briefly: cell-based or functional assay.
Assay [2] concerns the target DCC (Deleted in Colorectal Cancer) expressed on COS-7 cells. Briefly: RGM-AP binding to transfected COS-7 cells.
Assay [3] addresses mouse Neogenin expressed on COS-7 cells (mouse) (UniProt P97798). Briefly: AP fusion binding to transfected COS-7 cells, saturation and Scatchard analysis.
Sequence of UniProt P97798 (P97798 37-1492): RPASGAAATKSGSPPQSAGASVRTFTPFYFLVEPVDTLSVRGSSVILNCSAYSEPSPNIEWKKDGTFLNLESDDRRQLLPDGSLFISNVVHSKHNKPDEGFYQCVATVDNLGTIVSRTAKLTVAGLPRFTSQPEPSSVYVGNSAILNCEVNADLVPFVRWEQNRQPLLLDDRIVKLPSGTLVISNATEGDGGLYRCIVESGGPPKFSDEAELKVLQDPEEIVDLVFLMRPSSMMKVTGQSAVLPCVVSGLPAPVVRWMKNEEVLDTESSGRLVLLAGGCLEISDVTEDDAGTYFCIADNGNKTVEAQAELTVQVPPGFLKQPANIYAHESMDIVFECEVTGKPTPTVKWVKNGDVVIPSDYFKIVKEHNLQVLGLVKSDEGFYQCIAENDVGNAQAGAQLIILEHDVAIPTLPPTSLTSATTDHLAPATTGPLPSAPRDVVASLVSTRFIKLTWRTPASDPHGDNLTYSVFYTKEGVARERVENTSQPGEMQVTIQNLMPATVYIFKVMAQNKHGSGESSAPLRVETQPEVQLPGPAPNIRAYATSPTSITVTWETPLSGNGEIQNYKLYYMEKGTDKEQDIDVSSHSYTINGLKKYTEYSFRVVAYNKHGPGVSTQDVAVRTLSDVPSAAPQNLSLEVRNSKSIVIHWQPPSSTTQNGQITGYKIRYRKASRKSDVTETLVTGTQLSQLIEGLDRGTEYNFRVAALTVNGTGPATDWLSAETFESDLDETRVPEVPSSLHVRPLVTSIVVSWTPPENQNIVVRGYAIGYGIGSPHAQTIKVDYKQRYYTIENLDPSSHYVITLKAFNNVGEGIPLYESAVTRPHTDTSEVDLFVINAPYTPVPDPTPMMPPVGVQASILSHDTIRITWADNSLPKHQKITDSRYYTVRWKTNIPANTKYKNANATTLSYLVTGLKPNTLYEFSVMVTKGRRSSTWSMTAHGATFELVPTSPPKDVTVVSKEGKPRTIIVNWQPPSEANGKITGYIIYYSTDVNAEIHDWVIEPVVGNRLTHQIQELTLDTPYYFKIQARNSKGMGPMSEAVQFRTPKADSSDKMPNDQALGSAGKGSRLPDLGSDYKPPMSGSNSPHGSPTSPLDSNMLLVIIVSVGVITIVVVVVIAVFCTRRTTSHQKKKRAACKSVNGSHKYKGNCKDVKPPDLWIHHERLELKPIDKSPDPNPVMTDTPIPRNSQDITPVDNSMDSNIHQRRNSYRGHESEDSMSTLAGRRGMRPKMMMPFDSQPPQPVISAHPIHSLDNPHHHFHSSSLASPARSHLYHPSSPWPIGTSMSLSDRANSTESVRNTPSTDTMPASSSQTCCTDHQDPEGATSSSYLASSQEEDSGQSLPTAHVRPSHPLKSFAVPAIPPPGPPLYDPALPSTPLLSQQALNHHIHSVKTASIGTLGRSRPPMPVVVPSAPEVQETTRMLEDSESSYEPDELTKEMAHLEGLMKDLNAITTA

Sequence of UniProt Q8JG54 (Q8JG54 150-404 limits assumed): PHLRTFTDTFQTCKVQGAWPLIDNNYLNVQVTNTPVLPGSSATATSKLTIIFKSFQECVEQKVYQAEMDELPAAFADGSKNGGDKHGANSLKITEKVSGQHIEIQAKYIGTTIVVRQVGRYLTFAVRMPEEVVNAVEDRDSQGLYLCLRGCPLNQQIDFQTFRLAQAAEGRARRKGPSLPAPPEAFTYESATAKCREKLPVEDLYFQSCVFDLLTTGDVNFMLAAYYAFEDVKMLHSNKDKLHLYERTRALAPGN

“Soluble ectodomain of chick Neogenin-1 (1-1027) with a carboxyl MycHis tag (from UniProt Q90610 1-1027) (receptor)” had a retinotectal stripe assay: blockade of retinal axon stripe preference in assay [1] of 400 nM. Substance “chick RGM-AP fusion protein (chick RGM aa 28 to 403 fused to human placental alkaline phosphatase, carboxy-terminal Myc His tag) (from UniProt Q8JG54 28-403; P05187 23-511) (ligand)” returned a fold lower affinity than for Neogenin in assay [2] of 50 fold. Moreover, in assay [3], the Kd came to 0.23 nM.

Usually Kd stands for the concentration at which binding is half-saturated. The low end stands for a tighter complex, the high end for a looser complex.
